According to paper PMC3587138 (Nature, 2011):

B1: recombinant 6×His-tagged Hub1 (natural protein, S. cerevisiae)
chain: MIEVVVNDRLGKKVRVKCLAEDSVGDFKKVLSLQIGTQPNKIVLQKGGSVLKDHISLEDYEVHDQTNLELYYL

Legend:
[1] = target: T1, full-length Snu66 (recombinant) (S. cerevisiae, UniProt Q12420 1-587); test: ITC
T1 sequence (looked up): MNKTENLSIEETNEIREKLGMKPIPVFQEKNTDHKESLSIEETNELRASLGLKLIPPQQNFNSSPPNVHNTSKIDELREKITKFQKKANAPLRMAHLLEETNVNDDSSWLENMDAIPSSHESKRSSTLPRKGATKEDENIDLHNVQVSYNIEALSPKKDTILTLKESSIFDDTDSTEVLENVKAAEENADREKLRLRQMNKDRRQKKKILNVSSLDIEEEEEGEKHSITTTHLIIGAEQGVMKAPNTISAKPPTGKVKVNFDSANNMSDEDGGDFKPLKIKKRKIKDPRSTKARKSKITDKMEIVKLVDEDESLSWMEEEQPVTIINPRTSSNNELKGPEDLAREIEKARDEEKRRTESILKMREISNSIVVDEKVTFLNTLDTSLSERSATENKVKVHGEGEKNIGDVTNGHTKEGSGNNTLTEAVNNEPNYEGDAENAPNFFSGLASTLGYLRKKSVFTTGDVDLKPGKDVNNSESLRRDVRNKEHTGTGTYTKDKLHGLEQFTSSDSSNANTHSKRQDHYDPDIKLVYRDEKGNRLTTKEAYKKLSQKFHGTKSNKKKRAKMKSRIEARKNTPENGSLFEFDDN

[2] = target: B1; test: NMR titration

Binder | Kd [1] [nM] | binding result [2]
B1 | 590 ± 70 | –
N-terminal 65-amino-acid fragment of Snu66 (domain or fragment, S. cerevisiae, UniProt Q12420 1-65, looked up) MNKTENLSIEETNEIREKLGMKPIPVFQEKNTDHKESLSIEETNELRASLGLKLIPPQQNFNSSP | – | binds
